From US10428140B2, “Anti-EphA4 antibody” (EISAI R&D MANAGEMENT CO., LTD., priority 2015, dated 2019)

Legend:
human EphA4 = molecular target: T1, human EphA4 (Homo sapiens, UniProt P54764); assay: Affinity of humanized antibodies by SPR (Biacore T200); assay type: binding; conditions: human EphA4 extracellular region-SEAP-His; for ka / kd: 1:1 binding model; for Kd: KD=kd/ka
T1 construct: made in house; not restated for the human SEAP-His protein
Protocol: The binding affinity of each anti-EphA4 monoclonal humanized antibody obtained in Example 16 for human EphA4 was determined by surface plasmon resonance (SPR) using Biacore T200 (GE Healthcare). First, for the assay of antibody A, a rat anti-mouse IgG1 antibody produced with a conventional method by immunizing rat with mouse IgG1 antibody was immobilized on sensor chip CM5. The immobilization of the rat anti-mouse IgG1 antibody on sensor chip CM5 was performed by the amine coupling method using N-hydroxysuccinimide (NHS) and N-ethyl-N′-(3-dimethylaminopropyl)carbodiimide hydrochloride (EDC). Ethanolamine was used in blocking (the sensor chip and the reagents for immobilization were all manufactured by GE Healthcare). The antibody was diluted with a buffer solution for immobilization (10 mM sodium acetate, pH 4.5) and immobilized on the sensor chip according to the protocol attached to Biacore T200. For the assay of each humanized monoclonal antibody, a protein A chip (GE Healthcare, 29-1383-03) was used. Antibody A or the humanized monoclonal antibody was diluted with a running buffer solution HBS-EP (GE Healthcare), injected onto only flow cell 2 for 120 seconds, and captured (captured amount: approximately 30 to 60 RU). Subsequently, human EphA4 extracellular region-SEAP-His protein serially diluted in the range of 50, 16.7, 5.6, 1.9, and 0.6 nM using HBS-EP was sequentially added from the lower toward higher concentration sides without regeneration operation. Binding reaction curves were sequentially observed at the time of the addition (association phase, for 120 sec) and after the completion of the addition (dissociation phase, for 900 sec). After the completion of each observation, the sensor chip was regenerated by the addition of 3 M MgCl2 (for 60 sec) or 10 mM Glycine-HCl pH 1.5 (for 30 sec). The obtained binding reaction curves were subjected to fitting analysis with 1:1 binding models using software BIA evaluation attached to the system to calculate the affinity (KD=kd/ka) for human EphA4 (Table 6).

[1] = molecular target: T2, human EphA4 (binding to human Ephrin A5) (Homo sapiens, UniProt P54764); assay: Human EphA4-human ligand binding inhibition ELISA of humanized antibodies (biotinylated Ephrin A5-Fc); conditions: biotinylated human Ephrin A5-Fc 0.7 nM
T2 construct: made in house; not restated for the human SEAP-His protein
T2 sequence (P54764 20-547): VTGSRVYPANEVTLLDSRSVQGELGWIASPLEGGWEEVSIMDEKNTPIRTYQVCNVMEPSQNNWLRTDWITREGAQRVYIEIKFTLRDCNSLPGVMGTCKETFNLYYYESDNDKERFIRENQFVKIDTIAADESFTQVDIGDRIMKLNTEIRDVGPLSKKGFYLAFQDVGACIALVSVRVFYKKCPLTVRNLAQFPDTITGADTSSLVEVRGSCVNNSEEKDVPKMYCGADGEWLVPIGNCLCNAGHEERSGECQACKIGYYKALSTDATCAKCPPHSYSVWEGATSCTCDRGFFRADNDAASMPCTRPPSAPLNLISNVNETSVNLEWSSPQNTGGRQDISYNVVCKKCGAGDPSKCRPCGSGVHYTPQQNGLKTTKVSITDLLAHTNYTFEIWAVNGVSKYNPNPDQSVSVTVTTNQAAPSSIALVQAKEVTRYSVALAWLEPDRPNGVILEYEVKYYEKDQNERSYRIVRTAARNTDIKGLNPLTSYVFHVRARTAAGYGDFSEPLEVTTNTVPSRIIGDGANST
Protocol: Each anti-EphA4 monoclonal humanized antibody obtained in Example 16 was evaluated for its inhibitory activity against the binding between human EphA4 and its human ligand according to the following steps. Each well of a 96-well plate (Nunc) was coated with an anti-alkaline phosphatase antibody (Thermo Fisher Scientific). After incubation overnight at 4° C., each well was blocked with 1% BlockAce (DS Pharma Biomedical) at room temperature for 1 hour. After washing with 0.05% Tween 20/PBS (Thermo Fisher Scientific) three times, the human EphA4 extracellular region-SEAP-His protein obtained by the method of Example 2 was added (final concentration: 10 nM) to each well and incubated at room temperature for 1 hour. After washing three times, a ligand and each serially diluted humanized antibody of antibody A (0, 0.003, 0.01, 0.03, 0.1, 0.3, 1, 3, 10, 30, 100, 300, 1000, and 3000 nM) were added to each well. The ligand used was biotinylated human Ephrin A5-Fc chimera (R&D Systems, final concentration: 0.7 nM). After incubation at room temperature for 1 hour and subsequent washing three times, horseradish peroxidase-labeled streptavidin (GE Healthcare) was added thereto and incubated at room temperature for 1 hour. After washing three times, a TMBZ (3,3′,5,5′-tetramethylbenzidine, Sigma-Aldrich) solution was added to each well and incubated at room temperature for 2 minutes. An equal amount of a reaction stopping solution (1N H2SO4, Wako Pure Chemical Industries) was added to each well. The absorbance at 450 nm was read using a microplate reader (PerkinElmer).

T1 sequence (P54764 20-547): as above

Molecule	ka (human EphA4) [M⁻¹ s⁻¹]	kd (human EphA4) [s⁻¹]	Kd (human EphA4) [nM]	IC50 [1] [nM]
90 (antibody, V domains shown, constant regions without entry; synthetic humanized antibody light chain variable region sequence; synthetic humanized antibody heavy chain variable region sequence) VL: DIQMTQSPSSLSASVGDRVTITCRASENIYRNLAWYQQKPGKAPQLLLYAATNLADGVPSRFSGSGSGTDYTLTISSLQPEDFATYYCQHFWGTPWTFGQGTKVEIK VH: QVQLVQSGSELKKPGASVKVSCKASGYTFTDYSMHWVRQAPGQGLEWMGWINTETGEPTYADDFKGRFVFSLDTSVSTAYLQISSLKAEDTAVYYCARIPLYYYGSRYWYFDVWGQGTTVTVSS	360000	0.00055	1.5	4.5
73 (antibody, V domains shown, synthetic humanized antibody heavy chain variable region sequence; synthetic humanized antibody light chain variable region sequence) VH: QIQLVQSGSELKKPGASVKVSCKASGYTFTDYSMHWVRQAPGQGLKWMGWINTETGEPTYADDFKGRFVFSLDTSVSTAYLQISSLKAEDTAVYYCARIPLYYYGSRYWYFDVWGQGTTVTVSS VL: EIVMTQSPATLSVSPGERATLSCRASENIYRNLAWYQQKPGQSPRLLIYAATNLADGIPARFSGSGSGTEYTLTISSLQSEDFAVYYCQHFWGTPWTFGQGTKVEIK	290000	0.00027	0.93	2.4
96 (antibody, V domains shown, constant regions without entry; synthetic humanized antibody light chain variable region sequence; synthetic humanized antibody heavy chain variable region sequence) VL: EIVMTQSPATLSVSPGERATLSCRASENIYRNLAWYQQKPGQSPRLLIYAATNLADGIPARFSGSGSGTEYTLTISSLQSEDFAVYYCQHFWGTPWTFGQGTKVEIK VH: QVQLVQSGSELKKPGASVKVSCKASGYTFTDYSMHWVRQAPGQGLKWMGWINTETGEPTYADDFKGRFVFSLDTSVSTAYLQISSLKAEDTAVYYCARIPLYYYGSRYWYFDVWGQGTTVTVSS	270000	0.00031	1.1	3.7
93 (antibody, V domains shown, constant regions without entry; synthetic humanized antibody light chain variable region sequence; synthetic humanized antibody heavy chain variable region sequence) VL: EIVMTQSPATLSVSPGERATLSCRASENIYRNLAWYQQKPGQSPRLLIYAATNLADGIPARFSGSGSGTEYTLTISSLQSEDFAVYYCQHFWGTPWTFGQGTKVEIK VH: QVQLVQSGSELKKPGASVKVSCKASGYTFTDYSMHWVRQAPGQGLEWMGWINTETGEPTYAQGFTGRFVFSLDTSVSTAYLQISSLKAEDTAVYYCARIPLYYYGSRYWYFDVWGQGTTVTVSS	310000	0.00024	0.77	2.5
91 (antibody, V domains shown, constant regions without entry; synthetic humanized antibody light chain variable region sequence; synthetic humanized antibody heavy chain variable region sequence) VL: DIQMTQSPSSLSASVGDRVTITCRASENIYRNLAWYQQKPGKAPQLLLYAATNLADGVPSRFSGSGSGTDYTLTISSLQPEDFATYYCQHFWGTPWTFGQGTKVEIK VH: QVQLVQSGSELKKPGASVKVSCKASGYTFTDYSMHWVRQAPGQGLKWMGWINTETGEPTYADDFKGRFVFSLDTSVSTAYLQISSLKAEDTAVYYCARIPLYYYGSRYWYFDVWGQGTTVTVSS	330000	0.00044	1.3	4.9
94 (antibody, V domains shown, constant regions without entry; synthetic humanized antibody light chain variable region sequence; synthetic humanized antibody heavy chain variable region sequence) VL: EIVMTQSPATLSVSPGERATLSCRASENIYRNLAWYQQKPGQSPRLLIYAATNLADGIPARFSGSGSGTEYTLTISSLQSEDFAVYYCQHFWGTPWTFGQGTKVEIK VH: QVQLVQSGSELKKPGASVKVSCKASGYTFTDYSMHWVRQAPGQGLKWMGWINTETGEPTYAQGFTGRFVFSLDTSVSTAYLQISSLKAEDTAVYYCARIPLYYYGSRYWYFDVWGQGTTVTVSS	260000	0.00024	0.95	2.7
95 (antibody, V domains shown, constant regions without entry; synthetic humanized antibody light chain variable region sequence; synthetic humanized antibody heavy chain variable region sequence) VL: EIVMTQSPATLSVSPGERATLSCRASENIYRNLAWYQQKPGQSPRLLIYAATNLADGIPARFSGSGSGTEYTLTISSLQSEDFAVYYCQHFWGTPWTFGQGTKVEIK VH: QVQLVQSGSELKKPGASVKVSCKASGYTFTDYSMHWVRQAPGQGLEWMGWINTETGEPTYADDFKGRFVFSLDTSVSTAYLQISSLKAEDTAVYYCARIPLYYYGSRYWYFDVWGQGTTVTVSS	300000	0.00031	1	3.1
71 (antibody, V domains shown, synthetic humanized antibody heavy chain variable region sequence; synthetic humanized antibody light chain variable region sequence) VH: QIQLVQSGSELKKPGASVKVSCKASGYTFTDYSMHWVRQAPGQGLKWMGWINTETGEPTYAQGFTGRFVFSLDTSVSTAYLQISSLKAEDTAVYYCARIPLYYYGSRYWYFDVWGQGTTVTVSS VL: EIVMTQSPATLSVSPGERATLSCRASENIYRNLAWYQQKPGQSPRLLIYAATNLADGIPARFSGSGSGTEYTLTISSLQSEDFAVYYCQHFWGTPWTFGQGTKVEIK	280000	0.00023	0.82	2.5
92 (antibody, V domains shown, constant regions without entry; synthetic humanized antibody light chain variable region sequence; synthetic humanized antibody heavy chain variable region sequence) VL: DIQMTQSPSSLSASVGDRVTITCRASENIYRNLAWYQQKPGKAPQLLLYAATNLADGVPSRFSGSGSGTDYTLTISSLQPEDFATYYCQHFWGTPWTFGQGTKVEIK VH: QIQLVQSGSELKKPGASVKVSCKASGYTFTDYSMHWVRQAPGQGLKWMGWINTETGEPTYADDFKGRFVFSLDTSVSTAYLQISSLKAEDTAVYYCARIPLYYYGSRYWYFDVWGQGTTVTVSS	330000	0.00043	1.3	3.5
